The record followed here is paper PMC10213502, “ICA69 regulates activity-dependent synaptic strengthening and learning and memory” (Frontiers in Molecular Neuroscience, 2023).

The assay concerns the target T1, GFP-tagged PICK1 (UniProt Q9EP80 1-416).
T1 construct: construct as previously described (Cao et al., 2007); also called GFP-PICK1; source: HEK293T, transfected, in lysate
Description: co-IP; HEK cells co-transfected with the GFP-tagged bait and both myc-tagged proteins; IP with GFP antibody (normal rabbit serum as control), myc blot; IP signals normalised to input; lysis buffer 1% NP-40, 200 mM NaCl, 20 mM HEPES pH 7.4; 4°C. Particulars: partners not purified.

T1 sequence (Q9EP80 whole entry): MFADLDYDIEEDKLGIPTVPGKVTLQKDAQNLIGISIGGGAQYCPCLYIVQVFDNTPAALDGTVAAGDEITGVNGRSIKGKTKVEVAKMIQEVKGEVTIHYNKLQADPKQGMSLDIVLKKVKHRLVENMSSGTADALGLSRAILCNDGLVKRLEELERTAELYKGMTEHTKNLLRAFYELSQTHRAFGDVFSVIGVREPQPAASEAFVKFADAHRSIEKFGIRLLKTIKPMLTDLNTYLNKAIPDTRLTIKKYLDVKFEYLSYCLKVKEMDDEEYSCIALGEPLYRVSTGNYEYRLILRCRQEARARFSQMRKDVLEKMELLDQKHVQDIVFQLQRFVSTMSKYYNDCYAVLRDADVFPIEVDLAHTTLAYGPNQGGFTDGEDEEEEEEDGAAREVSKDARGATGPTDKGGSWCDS

B1: myc-tagged ICA69 (full-length) (natural protein, UniProt Q63054 1-480, looked up)
chain: MSGHKCYSWELQDRFAQDKSVVNKMQQKYWETKQAFIKATGKKEDEHVVASDADLDAKLELFHSIQRTCLDLSKAIVLYQKRICFLSQEENELGKFLRSQGFQDKTRAGKMMQATGKALCFSSQQRLALRNPLCRFHQEVETFRHRAISDTWLTVNRMEQCRTEYRGALLWMKDVSQELDPDLYKQMEKFRKVQTQVRLAKKNFDKLKMDVCQKVDLLGASRCNLLSHMLATYQTTLLHFWEKTSHTMAAIHESFKGYQPYEFTTLKSLQDPMKKLVEKEKKKSSRRENREAVAQEPRQLISLEEENQHKESSTCQKEEGKSVPSSVDKSSADDACSGPIDELLDVKPEEACLGPMAGTPEPESGDKDDLLLLNEIFSTSSLDEGEFSREWAAVFGDDRLKEPAPMGAQGEPDPKPQIGSAFLPSQLLDQNMKDLQASLQEPAKAASDLTAWFSLFADLDPLSNPDAIGKTDKEHELLNA
notes: ICA69 (islet cell autoantigen of 69 kDa), myc-tagged full-length made by overlap extension PCR; The same protein as m1, with another tag; also called myc-ICA69; source: HEK293T, transfected, in lysate
In the case of B1, the “heteromer/homomer ratio (myc-ICA69 over myc-PICK1 in the IP of GFP-PICK1)” value was determined as 19 ratio.
